A word on the Kd: it is a measure of binding affinity in units of concentration. Low readings indicate tighter binding, high ones weaker binding. One may read the stoichiometry N as the number of molecules, sites or subunits per partner or assembly.

Where a chain is given by its changes, count along the chain named. Names may count otherwise.

Data set [1] addresses T1, Atu1419 (Agrobacterium fabrum C58) (UniProt A9CJ36).
T1 sequence: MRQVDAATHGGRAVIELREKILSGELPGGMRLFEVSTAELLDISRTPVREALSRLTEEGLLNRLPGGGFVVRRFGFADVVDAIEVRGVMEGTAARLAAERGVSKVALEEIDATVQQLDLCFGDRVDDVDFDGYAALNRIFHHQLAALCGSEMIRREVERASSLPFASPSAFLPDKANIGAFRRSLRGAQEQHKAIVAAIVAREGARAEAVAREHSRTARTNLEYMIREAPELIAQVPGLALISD
Kind of data set: EMSA. Particulars: EMSA: 50 mM Tris-HCl pH 8, 150 mM NaCl, 30 nM DNA, 30 min at room temperature; gel 6% or 12% PAGE in TBE at 4 C. A general note: In EMSA bound probe runs differently from free probe, usually more slowly.

Data set [2] has as its target T2, Atu1419 (Agrobacterium fabrum, UniProt A9CJ36).
T2 construct: theoretical monomer mass ~26542 Da; homotetramer; co-purified Zn2+
T2 sequence (A9CJ36 1-244): T1 sequence
As to the kind of experiment: isothermal titration calorimetry. Type of data set: binding. A general note: Isothermal titration calorimetry measures the heat released or taken up as one component is titrated into another.

Data set [3] concerns the target T2, Atu1419. As to the kind of experiment: differential scanning calorimetry. Type of data set: binding. The settings on record: 10 µM protein, 100 µM MEF, 1 K/min; absolute Tm with ligand, apo reference Tm 52.6 °C. On the technique in general: Differential scanning calorimetry records heat flow against a reference as temperature is scanned.
Data set [4] deals with the molecule itself. Kind of data set: SEC + SEC-MALS; apo Atu1419 at 25 uM; Superdex 200 10/300 GL; 50 mM Tris pH 8, 150 mM NaCl.
Data set [5] deals with the molecule itself. Kind of data set: not stated; oligomeric state of purified Atu1419-H3A; method not given.
Data set [6] concerns the target T3, Atu1419 (Agrobacterium fabrum C58, UniProt A9CJ36 1-244).
T3 sequence: T1 sequence
Kind of data set: X-ray crystallography; Zn2+, citrate (orientation B); EMSA: 50 mM Tris-HCl pH 8, 150 mM NaCl, 30 nM DNA, 30 min at room temperature; gel 6% or 12% PAGE in TBE at 4 C. The settings on record: protein: recombinant; tags: C-terminal 6xHis; chain copies: 4; blunt; self-complementary, 2 strand copies.

Take “AAGCGCCTGAACTGATTGCGCAGGTTCCGGGTCTCGCACTCATCAGCGACTAAGCGGCGGAAATCGCTGCAAATCCAGGGGTGGCGCCTTTTGGCGCCGCCTTTATTTTTGTCGACACCCTCCCTGACGCGGTAATTTTGCGCTTGCAATTTATCAAAGCACAGCGTTTCATGTATACATAGATGCGATTGCCAGGGAGGAGATGACAATGGCAAATTCCAGTCTGACCGAGGTTTTGAAGCAATATCCGAACCCCGTTGAAATGCTC (double strand) [Patu1420]”: the binding entry in data set [1] is “binds”.

`Nc1nc2c(c(=O)[nH]1)N1CN(c3ccc(C(=O)N[C@@H](CCC(=O)O)C(=O)O)cc3)C[C@H]1CN2` [MEF, N5,N10-methylenetetrahydrofolate] showed a dissociation constant Kd at Atu1419 [2] of approximately 20 µM. Further, the Tm at Atu1419 [3] amounted to 63.5 °C. “GGTGGGACTGGTCAAACAACACGGCACCCTCGCGCCATGCGGCCTGCTCGGAACGCCAGTTGCTGAACTCACCGGCGACAACCGGGTATACATACATTCCGATTTTTGAGTTGCGGAGCATTTCAACGGGGTTCGGATATTGCTTCAAAACCTCGGTCAGACTGGAATTTGCCATTGTCATCTCCTCCCT (double strand) [P2-atu1420]”: the binding entry in data set [1] is “binds”.

B1: Atu1419 transcriptional regulator (GntR superfamily, VanR group) of Agrobacterium fabrum (natural protein, UniProt A9CJ36 1-244, looked up)
chain: T1 sequence
notes: Atu1419, GntR-type transcriptional repressor of the SpG8-1b region, Agrobacterium fabrum C58; theoretical molecular weight about 26 542 Da for a monomer; Co-purifies with one Zn2+ ion per subunit; also called apo Atu1419; wild-type Atu1419; source: E. coli BL21, pET-20b, purified (His-Trap HP, Superdex 200 gel filtration)
B1: the “stoichiometry N” value in data set [4] amounted to 4.

B2: Atu1419-H3A mutant (H192A, H141A and H214A) (natural protein)
chain: T1 sequence with H141A, H192A, H214A
notes: The PDB entries are of the wild-type parent; the mutant could not be crystallised; also called triple point mutant; source: E. coli BL21, synthetic gene (Genscript) in pET-20b, expressed and purified as the wild-type protein
With B2, the “stoichiometry N” value in data set [5] was found to be 4.

B3: 10-mer palindrome (dsDNA)
DNA 1: ATGTATACAT
DNA 2: ATGTATACAT
Consider B3, for which the binding result with Atu1419 [6] is on record as “binds”.
